Assay results from the Human Domainome abundance scans (Beltran et al. 2025).
± gives the uncertainty stated by the source.

B1: SAM and SH3 domain-containing protein 1, residues 630 to 700; numbered along this chain, O94885 (parent)
chain: GRPPQPKSVEDLLDRINLKEHMPTFLFNGYEDLDTFKLLEEEDLDELNIRDPEHRAVLLTAVELLQEYDSN

Variants of: B1
Experiment: abundance fitness (aPCA) (normalised: wild type 0, dead -1); higher = more abundant; growth selection in yeast, the domain comes from the species named
Details: Homo sapiens

Variant	abundance fitness
E67R	-0.167 ± 0.04
E67V	-0.232 ± 0.044
E67K	-0.094 ± 0.046
A56W	-0.816 ± 0.086
A56K	0.265 ± 0.038
A56C	-0.272 ± 0.046
A56H	-0.057 ± 0.037
I49F	-0.851 ± 0.069
I49K	-0.863 ± 0.08
I49P	-1 ± 0.08
P4T	0.101 ± 0.046
P4R	-0.198 ± 0.057
P6V	-0.168 ± 0.044
P6W	-0.092 ± 0.052
P6E	-0.481 ± 0.084
R2L	-0.246 ± 0.054
R2Q	-0.412 ± 0.076
R2G	-0.509 ± 0.077
R2T	-0.239 ± 0.048
R2E	-0.634 ± 0.1
R2F	-0.21 ± 0.066
R2H	-0.301 ± 0.085
R55W	-1.14 ± 0.14
K19N	-0.211 ± 0.047

Variant	abundance fitness
K19T	0.042 ± 0.036
K19A	-0.055 ± 0.039
K19Q	0.002 ± 0.044
K19V	-0.293 ± 0.042
L65D	-0.511 ± 0.09
L65Q	-0.707 ± 0.084
L65S	-0.69 ± 0.048
L65Y	-0.961 ± 0.093
L65V	-0.452 ± 0.056
L65H	-0.853 ± 0.083
L65G	-0.808 ± 0.076
G29K	-0.925 ± 0.11
G29C	-1.12 ± 0.13
G29Y	-0.895 ± 0.1
G29H	-0.831 ± 0.081
G29P	-0.967 ± 0.08
H21F	-0.134 ± 0.046
H21N	-0.689 ± 0.071
H21C	-0.536 ± 0.058
H21A	-0.85 ± 0.068
H21E	-0.689 ± 0.09
H21V	-0.607 ± 0.056
H21S	-0.785 ± 0.05
I16G	-0.674 ± 0.085

Variant	abundance fitness
I16Y	-0.009 ± 0.058
I16M	-0.325 ± 0.062
I16T	-0.589 ± 0.076
L39S	-0.818 ± 0.053
L39Y	-0.929 ± 0.078
L39Q	-0.892 ± 0.098
L39I	0.058 ± 0.041
L39W	-1.19 ± 0.14
L39D	-0.799 ± 0.081
L39A	-0.881 ± 0.068
L39K	-0.928 ± 0.11
L47C	-0.577 ± 0.055
L47V	-0.781 ± 0.051
L47D	-0.828 ± 0.073
L47H	-0.788 ± 0.062
Q66P	-0.673 ± 0.056
Q66H	-0.035 ± 0.043
Q66V	-0.587 ± 0.054
Q66C	-0.448 ± 0.064
Q66S	-0.331 ± 0.039
Q66E	-0.623 ± 0.088
S8D	-0.316 ± 0.076
S8G	-0.536 ± 0.076
S8Q	-0.55 ± 0.1

Variant	abundance fitness
S8E	-1.17 ± 0.25
S8W	-1.35 ± 0.24
S8A	-0.889 ± 0.093
S8L	-0.818 ± 0.067
E53C	-0.23 ± 0.06
E53Q	-0.051 ± 0.049
E53H	-0.09 ± 0.049
E53K	-0.131 ± 0.048
E53A	-0.089 ± 0.041
D51G	-0.75 ± 0.063
D51C	-0.396 ± 0.052
D51T	-0.505 ± 0.048
D51R	-0.611 ± 0.046
D51S	-0.49 ± 0.04
D51N	-0.159 ± 0.049
K37G	-0.669 ± 0.073
K37D	-0.791 ± 0.1
K37C	-0.449 ± 0.072
K37H	-0.76 ± 0.086
K37E	-0.64 ± 0.097
K37R	-0.211 ± 0.046
K37F	-0.946 ± 0.11
K7V	-0.126 ± 0.043
K7L	-0.323 ± 0.041

Variant	abundance fitness
K7W	-0.873 ± 0.12
K7T	0.095 ± 0.04
K7M	-0.309 ± 0.066
F25E	-0.623 ± 0.094
F25T	-0.59 ± 0.061
Y30C	-0.704 ± 0.076
Y30P	-0.767 ± 0.081
Y30E	-0.515 ± 0.092
Y30A	-0.92 ± 0.076
R15S	0.116 ± 0.033
R15M	0.142 ± 0.042
R15F	-0.286 ± 0.053
R15P	-0.828 ± 0.072
T24H	-0.698 ± 0.064
T24G	-0.713 ± 0.056
E31Y	-0.124 ± 0.042
E31K	0.124 ± 0.045
E31S	0.196 ± 0.032
E31N	0.171 ± 0.04
D14F	-0.734 ± 0.068
D14C	-0.215 ± 0.054
D14R	-0.434 ± 0.055
D14P	-0.834 ± 0.086
N28E	-0.647 ± 0.098

Variant	abundance fitness
N28M	-0.687 ± 0.081
N28F	-0.426 ± 0.062
N28A	-0.006 ± 0.04
L12K	-0.99 ± 0.12
L12Q	-0.679 ± 0.077
L12C	-0.654 ± 0.077
L12N	-0.794 ± 0.088
L12A	-0.846 ± 0.065
L12S	-0.75 ± 0.057
V57A	0.394 ± 0.037
P3W	-0.132 ± 0.062
P3A	-0.115 ± 0.043
L18V	-0.742 ± 0.052
L18C	-0.523 ± 0.066
L18W	-0.853 ± 0.089
L18N	-0.777 ± 0.081
L18T	-0.73 ± 0.06
L18K	-0.77 ± 0.077
L18P	-0.996 ± 0.085
L18H	-0.714 ± 0.076
N17V	-0.817 ± 0.062
N17C	-0.486 ± 0.068
N17K	-0.341 ± 0.051
N17Y	-0.904 ± 0.086

Variant	abundance fitness
N17A	-0.349 ± 0.046
N17D	-0.234 ± 0.057
N17R	-0.645 ± 0.051
Y68R	0.094 ± 0.038
Y68A	0.245 ± 0.039
Y68C	0.105 ± 0.051
Y68T	0.031 ± 0.045
Y68N	0.138 ± 0.053
Y68E	0.21 ± 0.053
Y68G	0.168 ± 0.041
Y68M	0.025 ± 0.053
T60P	-0.63 ± 0.064
T60G	0.071 ± 0.042
T60N	0.348 ± 0.038
T60M	-0.385 ± 0.055
V9I	-0.235 ± 0.046
V9A	-0.844 ± 0.073
V9G	-0.868 ± 0.081
L59I	-0.525 ± 0.064
L59P	-0.445 ± 0.051
L59F	-0.792 ± 0.07
L59M	0.001 ± 0.048
L59T	-0.562 ± 0.055
